Consider five molecules from publication PMC12241658.

For assay [1], the target named is recombinant human αβ hemoglobin, 6x His tag on the N-terminus of the α subunit (αβHb dimer) (human) (UniProt P69905). Description: BLI.
For assay [2], the target named is recombinant human αβ hemoglobin (αβHb dimer) (human) (UniProt P69905). Description: BLI.
For assay [3], the target named is recombinant human adult hemoglobin (αβHb), αβ dimer (human) (UniProt P69905). Description: BLI. For orientation: In BLI a coated tip is dipped into the sample, and binding shifts an interference pattern.

Where “and” joins values, the source holds several entries; their conditions need not be identical. Equal entries are not always repeated.

As usually defined, the koff is the first-order rate constant of dissociation. In general, kon refers to a measure of how fast the partners come together. “ChuA (outer membrane heme transporter, TonB-dependent transporter) from E. coli CFT073 (receptor)”: in assay [1], the dissociation rate constant (koff) was 0.0574 s⁻¹ and 0.0449 s⁻¹ and 0.0512 s⁻¹; the kon was 158000 M⁻¹ s⁻¹ and 144000 M⁻¹ s⁻¹ and 173000 M⁻¹ s⁻¹.
ChuA (receptor): in assay [2], the off-rate (koff) is 0.0574 s⁻¹ and 0.0531 s⁻¹; the kon is 144000 M⁻¹ s⁻¹ and 118000 M⁻¹ s⁻¹.
What is called Kd is the free concentration of one partner at which half of the binding sites on the other are occupied at equilibrium, for simple one-to-one binding. Turning to “ChuA, outer membrane TonB-dependent heme/hemoglobin transporter of E. coli CFT073 (receptor)”, in assay [3], the Kd amounted to 71.5 nM.

B1: recombinant human neuroglobin (natural protein)
chain: MERPEPELIRQSWRAVSRSPLEHGTVLFARLFALEPDLLPLFQYNCRQFSSPEDCLSSPEFLDHIRKVMLVIDAAVTNVEDLSSLEEYLASLGRKHRAVGVKLSSFSTVGESLLYMLEKCLGPAFTPATRAAWSQLYGAVVQAMSRGWDGE
As to B1, the EC50 of the growth of E. coli ΔTBDT:ChuOP in LB liquid medium with 200 µM 2,2'-bipyridine, supplemented with serially diluted neuroglobin (nonlinear regression, three parameters) in the assay with ChuA (E. coli CFT073) was determined as 0.826 µM.

B2: recombinant human myoglobin (natural protein)
chain: MGLSDGEWQLVLNVWGKVEADIPGHGQEVLIRLFKGHPETLEKFDKFKHLKSEDEMKASEDLKKHGATVLTALGGILKKKGHHEAEIKPLAQSHATKHKIPVKYLEFISECIIQVLQSKHPGDFGADAQGAMNKALELFRKDMASNYKELGFQG
B2: the EC50 of the growth of E. coli ΔTBDT:ChuOP in LB liquid medium with 200 µM 2,2'-bipyridine, supplemented with serially diluted myoglobin (nonlinear regression, three parameters) with ChuA (E. coli CFT073) came out at 24.2 µM.
